Here are results for 5 molecules from paper PMC5515355, “Frizzled 7 and PIP2 binding by syntenin PDZ2 domain supports Frizzled 7 trafficking and signalling” (Nature Communications, 2016).

In assay [1] the target is syntenin PDZ1–PDZ2 tandem (amino acids 107–275), wild type (human) (UniProt O00560). Put plainly: ITC; VP-ITC; Frizzled 7 peptide (1.0 mM) injected (32 x 8 μl) into PDZ1–PDZ2 tandem (30–60 μM); 10 mM Mes pH 7.0, 5 mM β-mercaptoethanol; binary sequential binding model.
The target in assay [2] is T1, syntenin PDZ2 domain (residues 196–275), wild type (human, UniProt O00560 196-275).
T1 construct: syntenin, PDZ2 domain, amino acids 196–275; also called PDZ2 wild type; source: ER2566 cells (pETM-11 vector), purified recombinant; not shown: His6, N-terminal, kept
T1 sequence (looked up): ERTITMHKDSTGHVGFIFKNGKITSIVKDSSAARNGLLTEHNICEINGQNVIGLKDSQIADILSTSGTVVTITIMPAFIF
Put plainly: SPR; BIAcore T200, 25 °C; biotinylated Frizzled 7 19mer peptides (100 RU) immobilised on a streptavidin chip, His-tagged syntenin proteins as analytes; 10 mM HEPES pH 7.4, 150 mM NaCl, 0.005% Tween 20; equilibrium titration, apparent KD; without IP3. Particulars: both partners purified. (SPR reads the build-up and loss of mass on a sensor chip optically.)

Assay [3] concerns the target T2, syntenin PDZ1–PDZ2 tandem (amino acids 107–275), wild type (human, UniProt O00560 107-275).
T2 construct: syntenin, PDZ1–PDZ2 tandem, amino acids 107–275; also called PDZ tandem of syntenin; PDZ1–PDZ2 tandem wild-type; source: ER2566 cells (pETM-11 vector), purified; not shown: His6, N-terminal, kept
T2 sequence (looked up): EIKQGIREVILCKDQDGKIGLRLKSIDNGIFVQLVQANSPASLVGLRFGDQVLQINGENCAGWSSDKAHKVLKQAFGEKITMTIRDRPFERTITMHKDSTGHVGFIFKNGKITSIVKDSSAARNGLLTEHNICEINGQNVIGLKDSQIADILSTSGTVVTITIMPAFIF
The assay is described as above. The note with it: both partners purified.

Assay [4] deals with T3, syntenin PDZ2 domain (196–275) K214A/K250A (human, UniProt O00560 196-275, K214A | K250A).
T3 construct: syntenin, PDZ2 domain, amino acids 196–275, K214A and K250A; also called PDZ2 double mutant; PDZ2 mutant K214A/K250A; source: ER2566 cells (pETM-11 vector), purified; not shown: His6, N-terminal, kept
T3 sequence (looked up): T1 sequence (looked up) with K19A, K55A
The assay is described as above. The note with it: both partners purified.

Assay [5] addresses T4, syntenin PDZ2 domain (196–275) K250A (human, UniProt O00560 196-275, K250A).
T4 construct: syntenin, PDZ2 domain, amino acids 196–275, K250A; also called PDZ2 single mutant K250A; source: ER2566 cells (pETM-11 vector), purified; not shown: His6, N-terminal, kept
T4 sequence (looked up): T1 sequence (looked up) with K55A
The description is as above. The note with it: both partners purified.

The target of assay [6] is T5, syntenin PDZ1–PDZ2 tandem (107–275) mutant K214A/K250A (human, UniProt O00560 107-275, K214A | K250A).
T5 construct: syntenin, PDZ1–PDZ2 tandem, amino acids 107–275, K214A and K250A; PDB 4Z33 holds the wild-type parent of the same limits; also called PDZ1–PDZ2 tandem mutant K214A/K250A; K214A/K250A mutant tandem; source: ER2566 cells (pETM-11 vector), purified; not shown: His6, N-terminal, kept
T5 sequence (looked up): T2 sequence (looked up) with K108A, K144A
The assay is described as above. The note with it: both partners purified.

Assay [7] concerns the target T2, syntenin PDZ1–PDZ2 tandem (amino acids …). Put plainly: SPR; as a3, but the syntenin protein pre-incubated with 0.5 mM Ins(1,4,5)P3 (IP3, PIP2 head group) before perfusion; apparent KD. The note with it: both partners purified.
Assay [8] deals with T1, syntenin PDZ2 domain (residues …). The description is as above. Particulars: both partners purified.
The target of assay [9] is T6, syntenin PDZ2 domain (196–275) K214A (human, UniProt O00560 196-275, K214A).
T6 construct: syntenin, PDZ2 domain, amino acids 196–275, K214A; also called PDZ2 single mutant K214A; source: ER2566 cells (pETM-11 vector), purified; not shown: His6, N-terminal, kept
T6 sequence (looked up): T1 sequence (looked up) with K19A
The assay is described as above. Particulars: both partners purified.

Assay [10] addresses T7, syntenin PDZ2 domain (196–275) N215D (human, UniProt O00560 196-275, N215D).
T7 construct: syntenin, PDZ2 domain, amino acids 196–275, N215D; also called PDZ2 single mutant N215D; source: ER2566 cells (pETM-11 vector), purified; not shown: His6, N-terminal, kept
T7 sequence (looked up): T1 sequence (looked up) with N20D
The description is as above. Particulars: both partners purified.

Assay [11] addresses T2, syntenin PDZ1–PDZ2 tandem (amino acids …). Put plainly: MST; as a7, in the presence of Ins(1,4,5)P3 head group (concentration not stated); fit of Hill's equation. The note with it: both partners purified.
The target of assay [12] is T1, syntenin PDZ2 domain (residues …). Put plainly: SPR; competition: PDZ2 wild type (30 μM) incubated with 0–4 mM 6mer Frizzled 7 peptide (KGETAV), then perfused over the Frizzled 7 peptide immobilised on a BIAcore streptavidin chip; equilibrium responses. The note with it: both partners purified.
The target in assay [13] is T2, syntenin PDZ1–PDZ2 tandem (amino acids …). Put plainly: crystal structure; PDZ tandem co-crystallised with C4-PIP2 and the Frizzled 7 sixmer, molar ratio protein:lipid:peptide 10:23:23; 2.45 Å. The note with it: both partners purified.

Changes are numbered by the printed parent chain. Ends that are not written are not given here. carboxifluorescein = carboxyfluorescein

Turning to “8mer C-terminal peptide from Frizzled 7 (from UniProt O75084 567-574)”, in assay [1], the KD of the first site (binary sequential binding model) worked out at 20.5 µM and the KD of the second site (binary sequential binding model) worked out at 4.3 µM.

B1: Frizzled 7 K-5A mutant 19mer, biotinylated (SWRRFYHRLSHSSAGETAV) (peptide)
peptide: SWRRFYHRLSHSSAGETAV
modifications: also: biotinylated, position not given here
notes: Frizzled 7, last 19 residues with the lysine at position -5 (lysine 569) replaced by alanine; Immobilised on a streptavidin sensor chip; also called Frizzled 7 K-5A 19mer; source: synthetic peptide, GenScript
As for B1, the binding result in assay [2] is reported as “binds”.

B2: Frizzled 7 wild-type 19mer, biotinylated C-terminal peptide (SWRRFYHRLSHSSKGETAV) (peptide)
peptide: SWRRFYHRLSHSSKGETAV
modifications: also: biotinylated, position not given here
notes: Frizzled 7, last 19 residues, part of the cytoplasmic domain; K-5 is lysine 569; Immobilised on a streptavidin sensor chip; also called 19 amino acids C-terminal peptide from Frizzled 7; Frizzled 7 19mer; source: synthetic peptide, GenScript
B2: the Kd in assay [3] was found to be 8 µM; in assay [2] it was 32 µM; in assay [7], 2 µM; in assay [8], 5 µM. The binding result in assay [4], in assay [5], in [6], in assay [9] and in assay [10] was “binds” in each case.

B3: 6mer C-terminal peptide from Frizzled 7, N-terminally labelled with carboxifluorescein (peptide)
peptide: carboxifluorescein-KGETAV
notes: Frizzled 7, C-terminal six residues; also called Frizzled 7 peptide (microscale thermophoresis); source: synthetic peptide (chemically synthesized, JPT, Germany)
As for B3, the Kd in assay [11] was 1.2 µM.

B4: C-terminal hexapeptide of Frizzled 7 (KGETAV) (peptide)
peptide: KGETAV
notes: Frizzled 7, C-terminal six residues; K-5 is lysine 569; also called Fz7(6mer); 6mer Frizzled 7 peptide
In the case of B4, the binding result in [12] and in [13] was “binds” in each case.
